B1: VH1/Vκ2 (antibody, V domains shown)
VH: EVQLVESGGGLVKPGGSLRLSCAASGFTFSNYAMSWVRQAPGKGLEWVATISNRGSYTYYPDSVKGRFTISRDNAKNSLYLQMSSLRSEDTALYYCARERPMDYWGQGTSVTVSS
VL: DIVMTQSPSTLSASVGDRVTITCKASQDVGTAVAWYQQKPGQPPKLLIYWASTRHTGVPDRFTGSGSGTDFTLTISSLQAEDFAVYFCHQHSSNPLTFGQGTKLEIK
B2: VH1/Vκ0 (control) (antibody, V domains shown)
VH: B1 VH
VL: DIVMTQSHKFMSTSVGDRVSITCKASQDVGTAVAWYQQKPGQSPKLLIYWASTRHTGVPDRFTGSGSGTDFTLTITNVQSEDLAVYFCHQHSSNPLTFGAGTKLELK
B3: VH2/Vκ5 (antibody, V domains shown)
VH: B1 VH with S84N, S88A, S110L
VL: B1 VL with V3Q, K24R, T63S, V85T, F87Y
B4: VH3/Vκ5 (antibody, V domains shown)
VH: B1 VH with P61A, S84N, S88A, S110L
VL: B1 VL with V3Q, K24R, T63S, V85T, F87Y
B5: VH3/Vκ1 (antibody, V domains shown)
VH: B1 VH with P61A, S84N, S88A, S110L
VL: B1 VL with T10F, A80S
B6: VH2/Vκ2 (antibody, V domains shown)
VH: B1 VH with S84N, S88A, S110L
VL: B1 VL
B7: VH2/Vκ1 (antibody, V domains shown)
VH: B1 VH with S84N, S88A, S110L
VL: B1 VL with T10F, A80S
B8: VH3/Vκ3 (antibody, V domains shown)
VH: B1 VH with P61A, S84N, S88A, S110L
VL: B1 VL with V3Q, T63S
B9: VH1/Vκ4 (antibody, V domains shown)
VH: B1 VH
VL: B1 VL with V3Q, K24R, T63S, F87Y
B10: VH2/Vκ3 (antibody, V domains shown)
VH: B1 VH with S84N, S88A, S110L
VL: B1 VL with V3Q, T63S
B11: VH1/Vκ3 (antibody, V domains shown)
VH: B1 VH
VL: B1 VL with V3Q, T63S
B12: VH0/Vκ1 (control) (antibody, V domains shown)
VH: B1 VH with G10A, R19K, A40T, G42E, G44R, S78T
VL: B1 VL with T10F, A80S
B13: VH3/Vκ2 (antibody, V domains shown)
VH: B1 VH with P61A, S84N, S88A, S110L
VL: B1 VL
B14: VH2/Vκ4 (antibody, V domains shown)
VH: B1 VH with S84N, S88A, S110L
VL: B1 VL with V3Q, K24R, T63S, F87Y
B15: VH1/Vκ5 (antibody, V domains shown)
VH: B1 VH
VL: B1 VL with V3Q, K24R, T63S, V85T, F87Y
B16: VH1/Vκ1 (antibody, V domains shown)
VH: B1 VH
VL: B1 VL with T10F, A80S
B17: VH3/Vκ4 (antibody, V domains shown)
VH: B1 VH with P61A, S84N, S88A, S110L
VL: B1 VL with V3Q, K24R, T63S, F87Y
B18: VH5/Vκ6 (antibody, V domains shown)
VH: B1 VH with A40T, G42E, G44R
VL: B1 VL with T10F, Q42K, P43A, A80S
notes: Redesigned variant; cloned into the appropriate expression vector (IgG4v1 and kappa were used in the first round), HEK EBNA supernatant
B19: VH5/Vκ7 (antibody, V domains shown)
VH: B1 VH with A40T, G42E, G44R
VL: B1 VL with V3Q, Q42K, P43A, T63S
notes: as for B18
B20: VH7/Vκ6 (antibody, V domains shown)
VH: B1 VH with A40T, G42E, G44R, S84N, S88A, S110L
VL: B1 VL with T10F, Q42K, P43A, A80S
notes: as for B18
B21: VH0/Vκ6 (antibody, V domains shown)
VH: B1 VH with G10A, R19K, A40T, G42E, G44R, S78T
VL: B1 VL with T10F, Q42K, P43A, A80S
notes: Control antibody of the redesign round; cloned into the appropriate expression vector (IgG4v1 and kappa were used in the first round), HEK EBNA supernatant
B22: VH0/Vκ7 (antibody, V domains shown)
VH: B1 VH with G10A, R19K, A40T, G42E, G44R, S78T
VL: B1 VL with V3Q, Q42K, P43A, T63S
notes: as for B21
B23: VH0/Vκ3 (antibody, V domains shown)
VH: B1 VH with G10A, R19K, A40T, G42E, G44R, S78T
VL: B1 VL with V3Q, T63S
notes: constant regions not restated, the humanisation used IgG4v1 heavy chain and kappa light chain vectors

Numbering of substitutions follows the chain as printed.

T1 sequence (P00751 260-764 limits assumed): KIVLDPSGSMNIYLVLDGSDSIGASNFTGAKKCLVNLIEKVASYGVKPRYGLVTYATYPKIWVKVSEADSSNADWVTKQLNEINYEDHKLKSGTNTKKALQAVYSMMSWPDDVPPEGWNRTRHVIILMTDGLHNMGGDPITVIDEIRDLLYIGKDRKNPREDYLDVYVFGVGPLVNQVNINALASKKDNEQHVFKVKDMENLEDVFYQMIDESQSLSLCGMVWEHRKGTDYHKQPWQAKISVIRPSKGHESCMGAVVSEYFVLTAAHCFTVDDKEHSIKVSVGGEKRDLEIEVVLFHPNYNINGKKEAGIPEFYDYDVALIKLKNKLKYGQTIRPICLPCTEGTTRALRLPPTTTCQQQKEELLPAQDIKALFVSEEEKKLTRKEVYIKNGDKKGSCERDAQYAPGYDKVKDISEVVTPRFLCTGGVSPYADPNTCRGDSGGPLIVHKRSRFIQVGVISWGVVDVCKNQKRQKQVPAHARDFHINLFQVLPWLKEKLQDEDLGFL

One experiment concerns the target T1, Homo sapiens factor Bb protein (human, UniProt P00751 260-764).
T1 construct: Bought from CompTech (A155); also called complement factor Bb; human factor Bb
As to the kind of experiment: SPR single cycle kinetics, IgG on Protein A chip, factor Bb analyte. On the procedure:
(§1) In order to assess the binding of all humanized variants, single cycle kinetic analysis was performed on supernatants from transfected cell cultures. […] All single cycle kinetic experiments were run at 25° C. with HBS-P+running buffer (pH 7. 4) (GE Healthcare, Little Chalfont, UK).
(§2) Antibodies were diluted in running buffer to a final concentration of 1 μg/ml, based on concentrations assessed by ELISA titer. At the start of each cycle, antibodies were loaded onto Fc2, Fc3 and Fc4 of the Protein A chip (GE Healthcare, Little Chalfont, UK). IgGs were captured at a flow rate of 10 μl/min to give an immobilization level (RL) of ˜63 RU, the theoretical value to obtain an Rmax of ˜50 RU. The surface was then allowed to stabilize. Single cycle kinetic data was obtained with factor Bb (CompTech, Tyler, USA) as the analyte at a flow rate of 30 μl/min to minimize any potential mass transport limitations. Multiple repeats with the reference chimeric antibody were performed to check the stability of the surface and analyte over the kinetic cycles. The signal from the reference channel Fc1 (no antibody) was subtracted from that of Fc2, Fc3 and Fc4 to correct for differences in non-specific binding to a reference surface. A four point, two-fold dilution range from 0. 78 nM to 6. 25 nM factor Bb without regeneration between each concentration was used. The association phase for the four injections of increasing concentrations of factor Bb was monitored for 200 seconds each time and a single dissociation phase was measured for 200 seconds following the last injection of factor Bb. Regeneration of the Protein A surface was conducted using two injections of 10 mM glycine-HCL pH 1. 5.
(§3) The sensorgrams and fitted data for the single cycle kinetics are shown in FIGS. 1A-1D and the kinetic parameters measured for the interaction of factor Bb with each antibody are shown in Table 7. The relative KD was calculated by dividing the KD of the VH0/Vκ0 reference antibody by that of the humanized variant assayed in the same experiment.
In turn, B1 gave a Kd of 5.22 nM, a koff of 0.00251 s⁻¹ and a kon of 481000 M⁻¹ s⁻¹.

Take B2: the Kd came out at 3.09 nM, the koff turned out to be 0.00116 s⁻¹ and the kon came out at 376000 M⁻¹ s⁻¹.

B3 yielded a Kd of 16.6 nM, a koff of 0.00375 s⁻¹ and a kon of 225000 M⁻¹ s⁻¹.

Take B4: binding was put at a Kd of 15.8 nM, the koff is 0.00451 s⁻¹ and the kon worked out at 285000 M⁻¹ s⁻¹.

Molecule B5 had a Kd of 13.9 nM, a koff of 0.00404 s⁻¹ and a kon of 291000 M⁻¹ s⁻¹.

On to B6, for which binding was put at a Kd of 13.9 nM, the dissociation rate constant (koff) was 0.00326 s⁻¹ and the kon is 234000 M⁻¹ s⁻¹.

Regarding B7, the Kd worked out at 20.7 nM, the koff was 0.00373 s⁻¹ and the kon worked out at 180000 M⁻¹ s⁻¹.

Consider B8, for which the affinity, expressed as Kd, was 14.9 nM; the koff came out at 0.00329 s⁻¹; the kon turned out to be 220000 M⁻¹ s⁻¹.

B9 yielded a Kd of 6.52 nM, a koff of 0.00294 s⁻¹ and a kon of 451000 M⁻¹ s⁻¹.

B10 yielded a Kd of 12.2 nM, a koff of 0.00307 s⁻¹ and a kon of 252000 M⁻¹ s⁻¹.

Molecule B11 registered a Kd of 3.9 nM, a koff of 0.00263 s⁻¹ and a kon of 675000 M⁻¹ s⁻¹.

In the case of B12, the affinity, expressed as Kd, was 2.68 nM; the koff was 0.00157 s⁻¹; the kon amounted to 586000 M⁻¹ s⁻¹.

As to B13, the Kd worked out at 16 nM, the koff was determined as 0.00377 s⁻¹ and the kon came to 236000 M⁻¹ s⁻¹.

B14 came in with a Kd of 10.9 nM, an off-rate constant (koff) of 0.00368 s⁻¹ and a kon of 339000 M⁻¹ s⁻¹.

Take B15: the Kd was 8.96 nM, the koff was determined as 0.00201 s⁻¹ and the kon was found to be 225000 M⁻¹ s⁻¹.

Molecule B16 had a Kd of 5.01 nM, a koff of 0.00287 s⁻¹ and a kon of 574000 M⁻¹ s⁻¹.

As to B17, the affinity, expressed as Kd, was 17.3 nM; the koff was 0.0046 s⁻¹; the kon was determined as 267000 M⁻¹ s⁻¹.

For another experiment, the target named is T1, Homo sapiens factor Bb protein. The experiment can be described thus: SPR single cycle kinetics; ratio against VH0/Vκ0. How it is done: All single cycle kinetic experiments were run at 25° C. with HBS-P+running buffer (pH 7. 4) (GE Healthcare, Little Chalfont, UK).
as §2
Single cycle kinetics using cell culture supernatants were performed as described above. […] The relative KD was calculated by dividing the KD of the VH0/Vκ0 reference antibody by that of the humanized variant assayed in the same experiment.
Take B18: the “Relative KD” value was determined as 73.5.

On to B19, for which the “Relative KD” value came out at 294.

With B20, the “Relative KD” value worked out at 10.2.

As to B21, the “Relative KD” value turned out to be 1.34.

On to B22, for which the “Relative KD” value turned out to be 1.19.

Regarding B23, the “Relative KD” value came to 1.28.

Another experiment has the same target. As to the kind of experiment: SPR single cycle kinetics, IgG on Protein A chip, factor Bb analyte. This is another data set of the same source. How it is done: as §1, §2
Single cycle kinetics using cell culture supernatants were performed as described above.
On to B18, for which the Kd worked out at 130 nM, the koff stood at 0.0173 s⁻¹ and the on-rate (kon) is 133000 M⁻¹ s⁻¹.

In the case of B19, the Kd was found to be 521 nM, the dissociation rate constant (koff) amounted to 0.00166 s⁻¹ and the kon worked out at 3200 M⁻¹ s⁻¹.

In turn, B20 had a Kd of 18 nM, a koff of 0.00303 s⁻¹ and a kon of 168000 M⁻¹ s⁻¹.

In turn, B21 gave a dissociation constant Kd of 2.37 nM, a koff of 0.00126 s⁻¹ and a kon of 534000 M⁻¹ s⁻¹.

The molecule B22 displayed a dissociation constant (Kd) of 2.11 nM, a koff of 0.00105 s⁻¹ and a kon of 496000 M⁻¹ s⁻¹.

Consider B23, for which the Kd was found to be 2.27 nM, the koff is 0.00128 s⁻¹ and the kon was 563000 M⁻¹ s⁻¹.

The next experiment has the same target. The experiment can be described thus: SPR single cycle kinetics; ratio against VH0/Vκ0. The source holds these as a separate data set. How it is done:
as §1, §2, §3
As for B1, the “Relative KD” value was 2.97.

With B2, the “Relative KD” value stood at 1.76.

On to B3, for which the “Relative KD” value stood at 9.43.

On to B4, for which the “Relative KD” value was 8.98.

For the molecule B5, the “Relative KD” value is 7.9.

Regarding B6, the “Relative KD” value was determined as 7.9.

Consider B7, for which the “Relative KD” value is 11.8.

On to B8, for which the “Relative KD” value was determined as 8.47.

For B9, the “Relative KD” value turned out to be 3.7.

Take B10: the “Relative KD” value turned out to be 6.93.

Turning to B11, the “Relative KD” value was determined as 2.22.

On to B12, for which the “Relative KD” value amounted to 1.52.

As for B13, the “Relative KD” value came out at 9.09.

For B14, the “Relative KD” value worked out at 6.19.

With B15, the “Relative KD” value amounted to 5.09.

As for B16, the “Relative KD” value was found to be 2.85.

For B17, the “Relative KD” value amounted to 9.83.
